Data as given in PMC3440434, “Efficient Antifouling Surface for Quantitative Surface Plasmon Resonance Based Biosensor Analysis”.

Key:
PFV-1 IN (integrase) [1] = molecular target: T1, PFV-1 IN (integrase) (PFV-1, UniProt P14350 752-1143); assay: SPR imaging; KD1, fast phase of two-phase fit; 200 nM IN; ka1 2.2e5 M-1s-1, kd1 5.8e-3 s-1; 10 mM MgCl2; 20 mM Hepes pH 8, 10 mM MgCl2, 100 mM NaCl, 25 ul/min; EG4-pretreated gold SPRi surface; temperature not given; conditions: protein: recombinant; label: none (immobilized on gold via 5' thiol); 5' overhang 5 nt (T5 spacer) on strand 1, other end blunt
PFV-1 IN (integrase) [2] = molecular target: T1, PFV-1 IN (integrase); assay: SPR imaging; 4 nM IN, monophasic; 5 uM dsDNA spots; ka 3.7e6 M-1s-1, kd 1.8e-3 s-1; text prints 4.9e-9 M but the rates give 4.9e-10; 10 mM MgCl2; 20 mM Hepes pH 8, 10 mM MgCl2, 100 mM NaCl, 25 ul/min; EG4-pretreated gold SPRi surface; temperature not given; conditions: protein: recombinant; label: none (immobilized on gold via 5' thiol); 5' overhang 5 nt (T5 spacer) on strand 1, other end blunt

B1: SH-5T-dsDNA (random 38 bp) (dsDNA)
DNA 1: TTTTTCTAAGCTAGAAGATTACTCCAAGTACATAATCTAAAAT
DNA 2: ATTTTAGATTATGTACTTGGAGTAATCTTCTAGCTTAG
modifications: 5' thiol-C6 on strand 1
Work on B1 yielded a Kd (PFV-1 IN (integrase) [1]) of 26 nM and a Kd (PFV-1 IN (integrase) [2]) of 0.49 nM.
